As a reminder, the Kd is the equilibrium constant for the complex coming apart. One may read the koff as the first-order rate constant of dissociation. Broadly, the kon is the rate constant with which the complex forms. By EC50 (read off the curve) is commonly meant the concentration giving half of the maximal effect.

Assay [1] concerns the target T1, CD94 homodimer (human, UniProt Q13241 32-179, limits assumed).
T1 sequence (looked up): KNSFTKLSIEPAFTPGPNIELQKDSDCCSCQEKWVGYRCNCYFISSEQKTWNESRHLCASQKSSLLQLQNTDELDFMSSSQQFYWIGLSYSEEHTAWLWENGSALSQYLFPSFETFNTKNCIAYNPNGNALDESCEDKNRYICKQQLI
Nature of the assay: SPR. The procedure: (§1) Kinetic binding analysis of anti-NKG2A monoclonal antibodies (mAbs) was performed by Surface Plasmon Resonance (SPR) using a Continuous Flow Microspotter (CFM, Wasatch Microfluidics, Salt Lake City, US) combined with an IBIS MX96 SPR instrument (IBIS Technologies, The Netherlands). The extracellular domains (ECDs) of human his-tagged NKG2A, NKG2C and FLAG-tagged CD94 were co-expressed using an Expi293™ expression system and purified by standard Ni-NTA chromatography followed by anti-Flag M2 affinity gel (A2220, Sigma). Binding kinetics were measured by capturing mAbs on a G-a-hu-IgG Fc SensEye® for 15 minutes using the CFM. After spotting, the SensEye® was positioned in the IBIS MX96 biosensor and immobilized mAbs were fixed by SensEye FixIt kit. Kinetic analysis was performed by applying a kinetic titration series injecting increasing concentrations of antigens from 1.6 nM to 400 nM as 2-fold dilutions. After each cycle of antigen injection, the surface was regenerated by 100 mM H₃PO₄, pH 3. Antigen association and dissociation were measured for 15 minutes. The recorded binding responses were fitted to a simple 1:1 binding model with Scrubber 2.0 software for calculation of the on-rate (kₒₙ or kₐ), off-rate (Koff or kd) and affinity (KD) constants. Binding kinetic parameters were measured as an average of three independent measuring points.
The binding affinities and kinetic parameters of the anti-NKG2A mAbs binding to NKG2A/CD94 and NKG2C/CD94 heterodimers are shown in Table 7. […] None of the mAbs bound to CD94 homodimer (data not shown).
For orientation: Surface plasmon resonance follows binding to a sensor surface in real time, without labels.

Assay [2] addresses T2, cynomolgus NKG2A and cynomolgus CD94 expressed on transiently transfected CHO-S cells (cynomolgus, UniProt Q68VD2 1-233; Q68VD4 1-179).
T2 construct: whole, on cells
The assay can be described thus: blocking of PE-conjugated HLA-E pentamer binding to transiently transfected CHO-S cells, flow cytometry (percentage binding) [panel B cNKG2A]. The procedure:
(§2) CHO-S cells were transiently transfected with constructs for expression of human NKG2A and human CD94, human NKG2C and human CD94, cynomolgus NKG2A and cynomolgus CD94, or cynomolgus NKG2C and cynomolgus CD94. Mock transfected CHO-S cells were included in the assay as negative control. A PE-conjugated HLA-E pentamer was tested for binding to the heterodimers in the presence of anti-human NKG2A antibodies in 3-fold serial dilutions from 10 μg/mL down to 14 ng/mL antibody, and 0 μg/mL antibody. The antibodies were allowed to bind for 30 min at 4° C. prior to the addition of the HLA-E pentamer in a 1:50 dilution. The fluorescence intensity of HLA-E binding to the transfected cells was measured by high throughput flow cytometry (IQue screener, Sartorius). Data were transferred to Excel and graphs were generated using GraphPad Prism® software.
On the technique in general: Flow cytometry measures light scatter and fluorescence of single cells or particles in a stream.

For assay [3], the target named is T3, recombinant human NKG2C/CD94 heterodimer (extracellular domains) (human, UniProt P26717 94-231; Q13241 32-179).
T3 construct: extracellular domain; also called HuNKG2C/huCD94; NKG2C/CD94 ECDs
T3 sequence (P26717 94-231, chain 1 of 2, one chain of several): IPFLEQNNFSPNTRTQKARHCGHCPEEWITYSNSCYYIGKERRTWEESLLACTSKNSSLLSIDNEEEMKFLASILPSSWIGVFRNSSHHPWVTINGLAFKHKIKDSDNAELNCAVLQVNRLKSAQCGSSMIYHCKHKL
Nature of the assay: SPR (IBIS MX96), mAb captured on anti-human IgG Fc, ECD heterodimer injected, 1:1 fit. Here is the method: as §1

Assay [4] has as its target T4, recombinant human NKG2A/CD94 heterodimer (extracellular domains) (human, UniProt Q13241 32-179).
T4 construct: extracellular domain; ECDs co-expressed in Expi293, purified by Ni-NTA and anti-Flag; also called HuNKG2A/huCD94; NKG2A/CD94 ECDs
Described as above. The procedure: as §1

Assay [5] concerns the target T5, human NKG2C and human CD94 expressed on transiently transfected CHO-S cells (human, UniProt P26717 1-231; Q13241 1-179).
T5 construct: whole, on cells
The assay can be described thus: blocking of PE-conjugated HLA-E pentamer binding to transiently transfected CHO-S cells, flow cytometry (percentage binding) [cont.), panel C hNKG2C]. Here is the method:
as §2

The target in assay [6] is T6, cynomolgus NKG2C and cynomolgus CD94 expressed on transiently transfected CHO-S cells (cynomolgus).
T6 construct: whole, on cells
Nature of the assay: blocking of PE-conjugated HLA-E pentamer binding to transiently transfected CHO-S cells, flow cytometry (percentage binding) [cont.), panel D cNKG2C]. The procedure:
as §2

The target in assay [7] is T7, human NKG2A and human CD94 expressed on transiently transfected CHO-S cells (human, UniProt Q13241 1-179).
T7 construct: whole, on cells; also called human NKG2A/CD94 heterodimer
Nature of the assay: flow cytometry, CHO-S cells transiently transfected with NKG2A variant and CD94, AF647 goat anti-human IgG secondary (MFI) [panel 23686]. The procedure:
(§3) Six anti-human NKG2A antibodies were tested for binding to the different heterodimers expressed. Antibodies were tested for binding to the transfected cells in 3-fold serial dilutions from 1 μg/mL antibody, and 0 μg/ml antibody, and incubated for 30 min at 4° C. Following a washing step, the cells were incubated with a fluorescent goat anti-human IgG (H+L) secondary antibody (A-21445, Invitrogen) for 30 min at 4° C. in the dark. After a second wash, the cells were tested by high throughput flow cytometry (IQue screener, Sartorius). Data were transferred to Excel and graphs were generated using GraphPad Prism® software. A reference antibody analogue and an isotype control were included for comparison.

In assay [8] the target is T8, I225M (Homo sapiens).
T8 construct: co-expressed on CHO-S cells; also called human NKG2A I225M / human CD94 heterodimer on CHO-S cells
T8 sequence (P26715 whole entry I225M): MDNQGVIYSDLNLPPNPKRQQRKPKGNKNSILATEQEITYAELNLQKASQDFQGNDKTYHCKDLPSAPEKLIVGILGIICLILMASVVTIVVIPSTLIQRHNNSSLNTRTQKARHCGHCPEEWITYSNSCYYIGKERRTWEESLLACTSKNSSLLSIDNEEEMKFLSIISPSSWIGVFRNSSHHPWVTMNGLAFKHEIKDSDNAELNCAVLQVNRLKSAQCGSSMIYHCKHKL
The assay is described as above. The procedure:
as §3

In assay [9] the target is T5, human NKG2C and human CD94 expressed on …. The description is as above. Here is the method: as §3
In assay [10] the target is T7, human NKG2A and human CD94 expressed on …. The assay can be described thus: flow cytometry, transiently transfected CHO-S cells, AF647 goat anti-human IgG secondary (MFI) [panel 23686]. Here is the method: (§4) CHO-S cells were transiently transfected with human NKG2A and human CD94, human NKG2C and human CD94, cynomolgus NKG2A and cynomolgus CD94 or cynomolgus NKG2C and cynomolgus CD94 constructs. Mock transfected CHO-S cells were included in the assay as a negative control. Antibodies were tested for binding to the transfected cells in 3-fold dilutions from 30 μg/mL down to 0.5 ng/ml antibody, and 0 μg/mL antibody, and incubated for 30 min at 4° C. Following a washing step, the cells were incubated with a fluorescent goat anti-human IgG (H+L) secondary antibody (A-21445, Invitrogen) for 30 min at 4° C. in the dark. After a second wash, the cells were tested by high throughput flow cytometry (IQue screener, Sartorius). Data were transferred to Excel and graphs were generated using GraphPad Prism® software.

Assay [11] concerns the target T5, human NKG2C and human CD94 expressed on …. The description is as above. The procedure:
as §4

Assay [12] addresses T2, cynomolgus NKG2A and cynomolgus CD94 …. Described as above. The procedure:
as §4

Assay [13] has as its target T6, cynomolgus NKG2C and cynomolgus CD94 …. The assay is described as above. Here is the method: as §4
In assay [14] the target is T7, human NKG2A and human CD94 expressed on …. The assay can be described thus: flow cytometry, transiently transfected CHO-S cells, AF647 goat anti-human IgG secondary (MFI) [cont.), panel 23925]. Here is the method:
as §4

Assay [15] has the same target. Nature of the assay: flow cytometry, CHO-S cells transiently transfected with NKG2A variant and CD94, AF647 goat anti-human IgG secondary (MFI) [cont.), panel 23925]. The procedure:
as §3

The target of assay [16] is T8, I225M. The assay is described as above. Here is the method: as §3
Assay [17] has as its target T7, human NKG2A and human CD94 expressed on …. The assay can be described thus: flow cytometry, transiently transfected CHO-S cells, AF647 goat anti-human IgG secondary (MFI) [panel 23566]. Here is the method: as §4
In assay [18] the target is T2, cynomolgus NKG2A and cynomolgus CD94 …. The description is as above. The procedure:
as §4

Assay [19] addresses T7, human NKG2A and human CD94 expressed on …. The assay can be described thus: flow cytometry, CHO-S cells transiently transfected with NKG2A variant and CD94, AF647 goat anti-human IgG secondary (MFI) [panel 23566]. Here is the method: as §3

Where a chain is given by its changes, count along the chain named. In names and notes the source's numbering stands.

T5 sequence (P26717 whole entry, one chain of several): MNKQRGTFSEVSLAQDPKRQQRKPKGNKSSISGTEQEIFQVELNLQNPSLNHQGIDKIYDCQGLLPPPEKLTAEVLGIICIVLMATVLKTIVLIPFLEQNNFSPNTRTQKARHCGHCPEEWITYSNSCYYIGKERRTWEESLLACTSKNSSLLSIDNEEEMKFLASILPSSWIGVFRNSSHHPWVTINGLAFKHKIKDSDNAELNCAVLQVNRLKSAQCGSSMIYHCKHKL
T4 sequence (chain, as listed by the source, chain 1 of 2, one chain of several): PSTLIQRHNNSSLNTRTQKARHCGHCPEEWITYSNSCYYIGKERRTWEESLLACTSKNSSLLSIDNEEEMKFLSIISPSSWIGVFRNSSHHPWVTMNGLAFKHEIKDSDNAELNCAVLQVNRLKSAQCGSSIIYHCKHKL

B1: antibody 23686 (antibody, human IgG1, kappa, L234A L235A, V domains shown)
VH: EVQLVESGGGLVKPGGSLRLSCAASGFTFSSYSMNWVRQAPGKGLEWVSSISSSSSYIYYADSVKGRFTISRDNAKNSLYLQMNSLRAEDTAVYYCARDEWGLLGFDSWGQGTLVTVSS
VL: EIVLTQSPATLSLSPGERATLSCRASQSISNYLAWYQQKPGQAPRLLIYDASNRATGIPARFSGSGSGTDFTLTISSLEPEDFAVYYCQQRTDWPPWTFGQGTKVEIKR
notes: Fully human IgG1-LALA (L234A/L235A), kappa
Turning to B1, the binding result in [1] was “no binding”. For the same molecule, the “IC50 (read off the curve)” value in assay [2] is approximately 0.3 µg/mL; in assay [5] it was approximately 0.2 µg/mL; in assay [6], approximately 0.7 µg/mL. The Kd was 3.9 nM in assay [3] and 0.72 nM in assay [4]. For the same molecule, the koff was determined as 0.0026 s⁻¹ in [3] and 0.00014 s⁻¹ in assay [4]. The kon in [3] came out at 670000 M⁻¹ s⁻¹; in assay [4], 200000 M⁻¹ s⁻¹. In addition, the half-maximal effective concentration (EC50 (read off the curve)) is approximately 0.005 µg/mL in [7]; approximately 0.007 µg/mL in assay [8]; approximately 0.003 µg/mL in assay [9]; approximately 0.03 µg/mL in assay [10]; approximately 0.01 µg/mL in [11]; approximately 0.02 µg/mL in assay [12]. In addition, the “EC50 (read off the curve)” value in assay [13] was approximately 0.02 µg/mL.

B2: antibody 23925 (antibody, human IgG1, kappa, L234A L235A, V domains shown)
VH: EVQLVESGGGLVQPGGSLRLSCAASGFTFSSYAMNWVRQAPGKGLEWVSTISNSGGTTYYADSVKGRFTISRDNSKDTLYLQMNSLRAEDTAVYYCAKAHYYARGYFDYWGQGTLVTVSS
VL: DIQMTQSPSSVSASVGDRVTITCRASQGISSWLAWYQQKSGKAPKLLIYAASSLQIGVPSRFSGSGSGTDFTLTISSLQPEDFATYYCQQANSFPYTFGQGTKLEIKR
notes: as for B1
Turning to B2, the values for the binding result in assay [1] and in assay [2] were “no binding” and “no binding (tested: 10000 ng/ml)”, respectively. The results for the “EC50 (read off the curve)” value in [14], in assay [15] and in assay [16] were approximately 0.02 µg/mL, approximately 0.004 µg/mL and approximately 0.003 µg/mL, respectively. Further, the results for the Kd in [3] and in assay [4] were 68 nM and 2.23 nM, respectively. Also, the values for the koff in assay [3] and in assay [4] were 0.0006 s⁻¹ and 0.00042 s⁻¹, respectively. For the same molecule, the kon in assay [3] amounted to 8800 M⁻¹ s⁻¹; in assay [4], 190000 M⁻¹ s⁻¹.

B3: antibody 23566 (antibody, human IgG1, kappa, L234A L235A, V domains shown)
VH: B2 VH with V5L, G10D, S30D, S31N, N35H, S52T, I70L, D77N, Y109F
VL: B2 VL with S7T, S40P, I56S
notes: Fully human IgG1-LALA (L234A/L235A), kappa; also called mAb 23566
Take B3: the “EC50 (read off the curve)” value in assay [17] was approximately 0.02 µg/mL; in assay [19] it was approximately 0.005 µg/mL. Besides, the binding result is “no binding (tested: about 3300 ng/ml)” in assay [18] and “no binding” in [1]. Moreover, the Kd in assay [3] was 98 nM; in assay [4] it was 2.5 nM. Also, the koff stood at 0.00083 s⁻¹ in assay [3] and 0.0011 s⁻¹ in assay [4]. The kon in assay [3] is 8500 M⁻¹ s⁻¹; in [4] it was 420000 M⁻¹ s⁻¹.

Source of the values: patent US20240294638A1 (LES LABORATOIRES SERVIER, published 2024).
